Here are results for eight sequences from patent US20100003756.

Holding throughout (assay): cell_activity
For data set [1], the system named is ZFN SBS 17622 (BAK) (synthetic). Particulars: pair 17622/17623, MDCK cells, CEL-I/Surveyor.
For data set [2], the system named is ZFN SBS 17627 (BAK) (synthetic). Particulars: pair 17627/17626, MDCK cells, CEL-I/Surveyor.
The subject of data set [3] is ZFN SBS 10077 (BAX) (synthetic). Particulars: BAX ZFNs of Table 1 (pair 10077/10079 inferred), Bak-deficient CHO, 21 of 79 clones Bsl I assay.
Data set [4] concerns ZFN SBS 17623 (BAK) (synthetic). Particulars: pair 17622/17623, MDCK cells, CEL-I/Surveyor.
The test system of data set [5] is ZFN SBS 17626 (BAK) (synthetic). Particulars: pair 17627/17626, MDCK cells, CEL-I/Surveyor.
Data set [6] deals with ZFN SBS 10079 (BAX) (synthetic). Particulars: BAX ZFNs of Table 1 (pair 10077/10079 inferred), Bak-deficient CHO, 21 of 79 clones Bsl I assay.
Data set [7] concerns ZFN SBS 17659 (BAX) (synthetic). Particulars: pair 17658/17659, MDCK cells, CEL-I/Surveyor.
The test system of data set [8] is ZFN SBS 17658 (BAX) (synthetic). Particulars: pair 17658/17659, MDCK cells, CEL-I/Surveyor.

The sequence “AATGATGCAGCATGA (double strand) [BAK 17622 half-site]” had an activity (% alleles modified) in data set [1] of 3.7. For the sequence “AGGGGTGGCTGGGTAG (double strand) [BAK 17627 half-site]”, the activity (% alleles modified) in data set [2] was determined as 1.1. On to “CAGGGTGGCTGG (double strand) [BAX 10077 half-site]”, for which the activity (% clones modified) in data set [3] is 27.

As to “CCGGTGGATCGCGCAGAG (double strand) [BAK 17623 half-site]”, the activity (% alleles modified) in data set [4] is 3.7. Consider “GATCCACCGGGCAATGCA (double strand) [BAK 17626 half-site]”, for which, in data set [5], the activity (% alleles modified) turned out to be 1.1. Turning to “GATCCAGACAAG (double strand) [BAX 10079 half-site]”, the activity (% clones modified) in data set [6] was 27.

Take “GGTTGGGTGAGGCCTG (double strand) [BAX 17659 half-site]”: the activity (% alleles modified) in data set [7] is 8. Consider “GTCCTGGATCCAGCC (double strand) [BAX 17658 half-site]”, for which, in data set [8], the activity (% alleles modified) was 8.
